This data set concerns the molecule itself. Put plainly: cryo-EM structure; single-particle cryo-EM of MS2 virions incubated with purified F-pili for 30 min at 37 °C; grids tilted 0°, 15° or 30°; maps at 5.0 Å (whole complex), 6.2 Å (F-pilus/Mat, local mask) and 5.6 to 7.3 Å (three classes).

B1: F-pilin, subunit of the E. coli F-pilus encoded by the pOX38 plasmid (natural protein, E. coli (pOX38 plasmid), UniProt P04737 52-121, looked up)
chain: AGSSGQDLMASGNTTVKATFGKDSSVVKWVVLAEVLVGAVMYMMTKNVKFLAGFAIISVFIAVGMAVVGL
notes: F-pilin of the pOX38 (F) plasmid, mature pilin; its first five residues are printed as AGSSG; assembled as a five-start helical filament with one phospholipid per pilin; initial model PDB 5LER. numbers count on: the mature protein; Stood in the assay as the assembled filament (stoichiometric pilin-phospholipid complex); the number of subunits is not fixed; source: on the cells for cryo-ET
For the protein B1, the binding result is “binds”.

These data come from PMC6635492, “Structural basis for the adsorption of a single-stranded RNA bacteriophage” (Nature Communications, 2019).
